Reference: paper PMC2756588

T1: Sla1-2, P32790
T1 sequence (P32790 60-140, looked up): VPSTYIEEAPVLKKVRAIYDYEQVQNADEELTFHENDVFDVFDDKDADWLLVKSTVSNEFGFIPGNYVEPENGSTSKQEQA

T2: Sla1-3, P32790
T2 sequence (P32790 344-424, looked up): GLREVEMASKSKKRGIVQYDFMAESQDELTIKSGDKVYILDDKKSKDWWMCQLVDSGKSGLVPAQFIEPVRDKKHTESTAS

T3: Fus1, P11710
T3 sequence (P11710 432-512, looked up): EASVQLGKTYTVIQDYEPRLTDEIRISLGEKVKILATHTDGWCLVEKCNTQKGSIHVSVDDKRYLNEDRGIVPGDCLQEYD

T4: Cdc25, P04821
T4 sequence (P04821 50-136, looked up): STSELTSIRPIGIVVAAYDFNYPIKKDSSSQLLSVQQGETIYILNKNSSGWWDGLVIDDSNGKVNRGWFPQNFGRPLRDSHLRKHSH

T5: Hse1, P38753
T5 sequence (P38753 208-285, looked up): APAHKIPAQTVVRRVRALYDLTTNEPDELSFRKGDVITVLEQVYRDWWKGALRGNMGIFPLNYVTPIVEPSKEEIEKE

T6: Bzz1-2, P38822
T6 sequence (P38822 568-633, looked up): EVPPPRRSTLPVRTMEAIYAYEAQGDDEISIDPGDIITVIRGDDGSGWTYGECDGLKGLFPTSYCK

T7: Cyk3, Q07533
T7 sequence (Q07533 1-83, looked up): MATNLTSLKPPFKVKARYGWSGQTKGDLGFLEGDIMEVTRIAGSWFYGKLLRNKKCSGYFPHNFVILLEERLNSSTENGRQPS

T8: Bud14, P27637
T8 sequence (P27637 247-328, looked up): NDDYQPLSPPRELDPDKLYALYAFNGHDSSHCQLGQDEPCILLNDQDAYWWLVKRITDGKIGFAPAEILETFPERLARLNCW

T9: Pin3, Q06449
T9 sequence (Q06449 53-122, looked up): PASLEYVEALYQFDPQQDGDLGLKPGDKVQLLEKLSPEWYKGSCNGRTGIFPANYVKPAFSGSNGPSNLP

T10: Nbp2, Q12163
T10 sequence (Q12163 103-180, looked up): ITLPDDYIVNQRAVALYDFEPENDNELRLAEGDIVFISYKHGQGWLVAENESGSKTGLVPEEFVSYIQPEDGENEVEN

T11: Boi1, P38041
T11 sequence (P38041 1-86, looked up): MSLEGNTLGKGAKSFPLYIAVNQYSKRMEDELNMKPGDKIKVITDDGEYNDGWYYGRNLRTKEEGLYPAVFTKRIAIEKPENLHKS

T12: Myo5, Q04439
T12 sequence (Q04439 1072-1160, looked up): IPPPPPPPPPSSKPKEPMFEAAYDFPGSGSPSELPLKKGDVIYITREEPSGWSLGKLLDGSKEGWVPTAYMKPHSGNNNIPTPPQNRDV

T13: Lsb3, P43603
T13 sequence (P43603 385-451, looked up): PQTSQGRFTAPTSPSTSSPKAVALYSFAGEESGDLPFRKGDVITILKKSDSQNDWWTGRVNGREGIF

T14: Lsb1, P53281
T14 sequence (P53281 45-122, looked up): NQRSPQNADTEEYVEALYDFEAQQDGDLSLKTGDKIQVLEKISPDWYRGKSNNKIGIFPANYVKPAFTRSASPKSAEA

T15: Abp1, P15891
T15 sequence (P15891 535-592, looked up): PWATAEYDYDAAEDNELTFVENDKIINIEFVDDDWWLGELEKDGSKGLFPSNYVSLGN

T16: Bzz1-1, P38822
T16 sequence (P38822 478-572, looked up): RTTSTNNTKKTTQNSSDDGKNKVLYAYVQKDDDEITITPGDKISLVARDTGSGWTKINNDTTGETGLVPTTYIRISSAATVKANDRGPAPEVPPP

T17: Lsb4, P32793
T17 sequence (P32793 402-468, looked up): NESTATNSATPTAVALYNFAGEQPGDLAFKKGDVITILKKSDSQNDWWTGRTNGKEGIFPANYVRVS

T18: Boi2, P39969
T18 sequence (P39969 32-116, looked up): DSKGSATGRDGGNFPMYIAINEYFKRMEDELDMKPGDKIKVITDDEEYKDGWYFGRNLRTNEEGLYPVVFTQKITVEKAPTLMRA

T19: Pex13, P80667
T19 sequence (P80667 295-386, looked up): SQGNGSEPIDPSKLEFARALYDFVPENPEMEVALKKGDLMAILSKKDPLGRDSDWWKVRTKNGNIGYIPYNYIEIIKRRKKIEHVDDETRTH

T20: Bbc1, P47068
T20 sequence (P47068 1-78, looked up): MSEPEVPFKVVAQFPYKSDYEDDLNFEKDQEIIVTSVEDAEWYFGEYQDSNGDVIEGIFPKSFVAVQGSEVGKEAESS

T21: Hof1, Q05080
T21 sequence (Q05080 590-669, looked up): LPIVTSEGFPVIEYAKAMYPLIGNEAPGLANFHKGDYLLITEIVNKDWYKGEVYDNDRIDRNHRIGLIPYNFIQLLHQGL


biological target: T1, Sla1-2, P32790; assay: SPOT array; conditions: median of control spots 712

Row | Binder | SPOT intensity
1 | PPPPPPPPPPPLPQS | 0
2 | AVPPPPPPPPLPESL | 0
3 | LPPPPPPPPPPPLPQ | 0

biological target: T2, Sla1-3, P32790; assay: SPOT array; conditions: median of control spots 5475

Row | Binder | SPOT intensity
4 | PPPPPPPPPPPLPQS | 0
5 | AVPPPPPPPPLPESL | 3
6 | LPPPPPPPPPPPLPQ | 4

biological target: Bem1-1, P29366; assay: SPOT array; conditions: median of control spots 4282
Sequence (P29366 55-141): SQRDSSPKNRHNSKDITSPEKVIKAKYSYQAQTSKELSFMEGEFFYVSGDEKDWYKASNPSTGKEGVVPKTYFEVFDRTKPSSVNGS

Row | Binder | SPOT intensity
7 | PPPPPPPPPPPLPQS | 0
8 | AVPPPPPPPPLPESL | 0
9 | LPPPPPPPPPPPLPQ | 0

biological target: T3, Fus1, P11710; assay: SPOT array; conditions: median of control spots 1200

Row | Binder | SPOT intensity
10 | PPPPPPPPPPPLPQS | 2
11 | AVPPPPPPPPLPESL | 0
12 | LPPPPPPPPPPPLPQ | 0

biological target: T4, Cdc25, P04821; assay: SPOT array; conditions: median of control spots 969

Row | Binder | SPOT intensity
13 | PPPPPPPPPPPLPQS | 0
14 | AVPPPPPPPPLPESL | 0
15 | LPPPPPPPPPPPLPQ | 1

biological target: T5, Hse1, P38753; assay: SPOT array; conditions: median of control spots 1727

Row | Binder | SPOT intensity
16 | PPPPPPPPPPPLPQS | 0
17 | AVPPPPPPPPLPESL | 0
18 | LPPPPPPPPPPPLPQ | 0

biological target: T6, Bzz1-2, P38822; assay: SPOT array; conditions: median of control spots 4538

Row | Binder | SPOT intensity
19 | PPPPPPPPPPPLPQS | 5
20 | AVPPPPPPPPLPESL | 1
21 | LPPPPPPPPPPPLPQ | 0

biological target: T7, Cyk3, Q07533; assay: SPOT array; conditions: median of control spots 1451

Row | Binder | SPOT intensity
22 | PPPPPPPPPPPLPQS | 0
23 | AVPPPPPPPPLPESL | 2
24 | LPPPPPPPPPPPLPQ | 1

biological target: T8, Bud14, P27637; assay: SPOT array; conditions: median of control spots 956

Row | Binder | SPOT intensity
25 | PPPPPPPPPPPLPQS | 0
26 | AVPPPPPPPPLPESL | 0
27 | LPPPPPPPPPPPLPQ | 0

biological target: T9, Pin3, Q06449; assay: SPOT array; conditions: median of control spots 2171

Row | Binder | SPOT intensity
28 | PPPPPPPPPPPLPQS | 0
29 | AVPPPPPPPPLPESL | 0
30 | LPPPPPPPPPPPLPQ | 0

biological target: T10, Nbp2, Q12163; assay: SPOT array; conditions: median of control spots 357

Row | Binder | SPOT intensity
31 | PPPPPPPPPPPLPQS | 0
32 | AVPPPPPPPPLPESL | 1
33 | LPPPPPPPPPPPLPQ | 0

biological target: T11, Boi1, P38041; assay: SPOT array; conditions: median of control spots 1162

Row | Binder | SPOT intensity
34 | PPPPPPPPPPPLPQS | 0
35 | AVPPPPPPPPLPESL | 0
36 | LPPPPPPPPPPPLPQ | 1

biological target: T12, Myo5, Q04439; assay: SPOT array; conditions: median of control spots 471

Row | Binder | SPOT intensity
37 | PPPPPPPPPPPLPQS | 489
38 | AVPPPPPPPPLPESL | 132
39 | LPPPPPPPPPPPLPQ | 325

biological target: Sho1, P40073; assay: SPOT array; conditions: median of control spots 1148
Sequence (P40073 287-367): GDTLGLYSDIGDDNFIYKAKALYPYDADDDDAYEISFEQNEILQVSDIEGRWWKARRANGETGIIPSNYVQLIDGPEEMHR

Row | Binder | SPOT intensity
40 | PPPPPPPPPPPLPQS | 0
41 | AVPPPPPPPPLPESL | 0
42 | LPPPPPPPPPPPLPQ | 0

biological target: Bem1-2, P29366; assay: SPOT array; conditions: median of control spots 4347
Sequence (P29366 139-227): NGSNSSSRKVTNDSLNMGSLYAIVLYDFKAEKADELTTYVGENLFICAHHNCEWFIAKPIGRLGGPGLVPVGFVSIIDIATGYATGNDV

Row | Binder | SPOT intensity
43 | PPPPPPPPPPPLPQS | 0
44 | AVPPPPPPPPLPESL | 2
45 | LPPPPPPPPPPPLPQ | 6

biological target: T13, Lsb3, P43603; assay: SPOT array; conditions: median of control spots 406

Row | Binder | SPOT intensity
46 | PPPPPPPPPPPLPQS | 0
47 | AVPPPPPPPPLPESL | 0
48 | LPPPPPPPPPPPLPQ | 0

biological target: T14, Lsb1, P53281; assay: SPOT array; conditions: median of control spots 388

Row | Binder | SPOT intensity
49 | PPPPPPPPPPPLPQS | 0
50 | AVPPPPPPPPLPESL | 0
51 | LPPPPPPPPPPPLPQ | 0

biological target: T15, Abp1, P15891; assay: SPOT array; conditions: median of control spots 935

Row | Binder | SPOT intensity
52 | PPPPPPPPPPPLPQS | 0
53 | AVPPPPPPPPLPESL | 0
54 | LPPPPPPPPPPPLPQ | 0

biological target: T16, Bzz1-1, P38822; assay: SPOT array; conditions: median of control spots 4446

Row | Binder | SPOT intensity
55 | PPPPPPPPPPPLPQS | 2
56 | AVPPPPPPPPLPESL | 0
57 | LPPPPPPPPPPPLPQ | 3

biological target: Rvs167, P39743; assay: SPOT array; conditions: median of control spots 2707
Sequence (P39743 419-482): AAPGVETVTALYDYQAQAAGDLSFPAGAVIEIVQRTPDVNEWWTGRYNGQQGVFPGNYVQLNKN

Row | Binder | SPOT intensity
58 | PPPPPPPPPPPLPQS | 0
59 | AVPPPPPPPPLPESL | 0
60 | LPPPPPPPPPPPLPQ | 0

biological target: Myo3, P36006; assay: SPOT array; conditions: median of control spots 468

Row | Binder | SPOT intensity
61 | PPPPPPPPPPPLPQS | 557
62 | AVPPPPPPPPLPESL | 490
63 | LPPPPPPPPPPPLPQ | 230

biological target: T17, Lsb4, P32793; assay: SPOT array; conditions: median of control spots 397

Row | Binder | SPOT intensity
64 | PPPPPPPPPPPLPQS | 0
65 | AVPPPPPPPPLPESL | 0
66 | LPPPPPPPPPPPLPQ | 0

biological target: T18, Boi2, P39969; assay: SPOT array; conditions: median of control spots 1161

Row | Binder | SPOT intensity
67 | PPPPPPPPPPPLPQS | 0
68 | AVPPPPPPPPLPESL | 1
69 | LPPPPPPPPPPPLPQ | 0

biological target: T19, Pex13, P80667; assay: SPOT array; conditions: median of control spots 1341

Row | Binder | SPOT intensity
70 | PPPPPPPPPPPLPQS | 3
71 | AVPPPPPPPPLPESL | 12
72 | LPPPPPPPPPPPLPQ | 3

biological target: T20, Bbc1, P47068; assay: SPOT array; conditions: median of control spots 796

Row | Binder | SPOT intensity
73 | PPPPPPPPPPPLPQS | 0
74 | AVPPPPPPPPLPESL | 0
75 | LPPPPPPPPPPPLPQ | 0

biological target: GST; assay: SPOT array; conditions: median of control spots 978

Row | Binder | SPOT intensity
76 | PPPPPPPPPPPLPQS | 0
77 | AVPPPPPPPPLPESL | 1
78 | LPPPPPPPPPPPLPQ | 0

biological target: T21, Hof1, Q05080; assay: SPOT array; conditions: median of control spots 4086

Row | Binder | SPOT intensity
79 | PPPPPPPPPPPLPQS | 1
80 | AVPPPPPPPPLPESL | 1
81 | LPPPPPPPPPPPLPQ | 1
